Assay results taken from US8093037B2, “Engineered microorganisms with enhanced fermentation activity” (Verdezyne, Inc., priority 2009, dated 2012).

Columns and labels:
[1] = Heterologous xylose isomerase expression in yeast (active yes/no); format: cell-based, Saccharomyces cerevisiae; conditions: xylose isomerase of donor organism expressed in engineered yeast (S. cerevisiae)
[2] = Xylose isomerase activity assay (sorbitol dehydrogenase/NADH coupled, Kuyper et al.), soluble whole cell extract; format: biochemical, Saccharomyces cerevisiae
[3] = EDA activity assay with saturating amounts of E. coli expressed EDD extract; format: biochemical, Saccharomyces cerevisiae
Protocol: Grow 5 ml LB-Kan preps of BF1055 (BL21/DE3 with pET26b empty vector) and BF1706 (BL21DE3 with pET26b+E. coli EDD).
Grow 50 ml LB-Kan prep of BF1055, 2% (v/v) inoculate.
Grow 50 ml prep of BF1706 using Novagen's Overnight Express (46.45 ml LB-Kan, 1 ml solution 1, 2.5 ml solution 2, 50 μl solution 3, 5 μl of 1M MnCl2, 50 μl of 0.5 M FeCl2), 2% (v/v) inoculate.
Inoculate to OD600 of 0.2.
EDD extractions (adapted from Chemyan et al, Protein Science 16:2368-2377, 2007): • 1) Pellet cells in 50 ml conical tubes, 4° C., 3,000 rpm, 10 mins, discard supernatant. • 2) Resuspend in 2 ml degassed PDGH buffer (20 mM MES pH 6.5, 30 mM NaCl, 5 mM MnCl2, 0.5 mM FeCl2, 10 mM 2-mercaptoethanol, 10 mM cysteine, sparged with nitrogen gas). Move to hungate tube. • 3) Add 0.1% Triton X-100, 10 ng/ml DNase, 10 μg/ml PMSF, 10 μg/ml TAME (Nα-(p-toluene sulfonyl)-L-arginine methyl ester), 100 μg/ml lysozyme. • 4) Sparge hungate tube with nitrogen gas, cap and seal. Incubate 2 hours at 37° C., swirl occasionally. • 5) Clarify by centrifugation in 2-ml tube, 4° C., 10 mins, 14,000 rpm. Keep supernatant. • 6) Treat with 150 mM pyruvate and 10 mM sodium cyanoborohydride (work in hood) to inactivate aldolase activity. Incubate 30 mins at room temperature. • 7) During incubation, pre-equilibrate PD-10 column from GE • a. Remove top cap, pour off storage buffer. • b. Cut off bottom tip, fit in 50 ml conical with adapter. • c. Pour 5 ml of 20 mM MES buffer, pH 6.5 (total of 5 times). Discard flow-through. • 8) Run sample through column, then add MES buffer to a total of 2.5 ml volume added. Discard flow-through. • 9) Run 3.5 ml 20 mM MES pH 6.5 buffer to elute protein. Discard column in appropriate waste receptacle. • 10) Perform Bradford assay (1:10 or 1:20 dilution). […]
Each reaction contains 50 mM Tris-HCl, pH 7, 10 mM MgCl2, 0.15 mM NADH, 15 μg LDH, saturating amounts of EDD determined empirically (usually ˜100 μg), 1-50 μg EDA (depending on level of activity), and 1 mM 6-phosphogluconate. Reactions are started by the addition of 6-phosphogluconate and monitored for 5 mins at 30° C.

Molecule: Streptomyces rubiginosus: xylose isomerase of this donor organism, expressed in S. cerevisiae
- Active? (yes/no) [1]: No

Molecule: Thermus thermophilus: xylose isomerase of this donor organism, expressed in S. cerevisiae
- Active? (yes/no) [1]: Yes

Molecule: Actinoplanes missouriensis: xylose isomerase of this donor organism, expressed in S. cerevisiae
- Active? (yes/no) [1]: No

Molecule: Bacteroides thetaiotaomicron: xylose isomerase of this donor organism, expressed in S. cerevisiae
- Active? (yes/no) [1]: Yes

B1: Clostridium thermosulfurogenes: xylose isomerase of this donor organism, expressed in S. cerevisiae (protein, UniProt P19148 1-439, looked up)
Xylose isomerase: MNKYFENVSKIKYEGPKSNNPYSFKFYNPEEVIDGKTMEEHLRFSIAYWHTFTADGTDQFGKATMQRPWNHYTDPMDIAKARVEAAFEFFDKINAPYFCFHDRDIAPEGDTLRETNKNLDTIVAMIKDYLKTSKTKVLWGTANLFSNPRFVHGASTSCNADVFAYSAAQVKKALEITKELGGENYVFWGGREGYETLLNTDMEFELDNFARFLHMAVDYAKEIGFEGQFLIEPKPKEPTKHQYDFDVANVLAFLRKYDLDKYFKVNIEANHATLAFHDFQHELRYARINGVLGSIDANTGDMLLGWDTDQFPTDIRMTTLAMYEVIKMGGFDKGGLNFDAKVRRASFEPEDLFLGHIAGMDAFAKGFKVAYKLVKDRVFDKFIEERYASYKDGIGADIVSGKADFRSLEKYALERSQIVNKSGRQELLESILNQYLFAE
- Active? (yes/no) [1]: No

B2: Escherichia coli: xylose isomerase of this donor organism, expressed in S. cerevisiae (protein, UniProt P00944 1-440, looked up)
Xylose isomerase: MQAYFDQLDRVRYEGSKSSNPLAFRHYNPDELVLGKRMEEHLRFAACYWHTFCWNGADMFGVGAFNRPWQQPGEALALAKRKADVAFEFFHKLHVPFYCFHDVDVSPEGASLKEYINNFAQMVDVLAGKQEESGVKLLWGTANCFTNPRYGAGAATNPDPEVFSWAATQVVTAMEATHKLGGENYVLWGGREGYETLLNTDLRQEREQLGRFMQMVVEHKHKIGFQGTLLIEPKPQEPTKHQYDYDAATVYGFLKQFGLEKEIKLNIEANHATLAGHSFHHEIATAIALGLFGSVDANRGDAQLGWDTDQFPNSVEENALVMYEILKAGGFTTGGLNFDAKVRRQSTDKYDLFYGHIGAMDTMALALKIAARMIEDGELDKRIAQRYSGWNSELGQQILKGQMSLADLAKYAQEHHLSPVHQSGRQEQLENLVNHYLFDK
- Active? (yes/no) [1]: No

B3: Bacillus subtilis: xylose isomerase of this donor organism, expressed in S. cerevisiae (protein, UniProt P0CI80 1-445, looked up)
Xylose isomerase: MAQSHSSSINYFGSANKVVYEGKDSTNPLAFKYYNPQEVIGGKTLKEHLRFSIAYWHTFTADGTDVFGAATMQRPWDHYKGMDLAKMRVEAAFEMFEKLDAPFFAFHDRDIAPEGSTLKETNQNLDMIMGMIKDYMRNSGVKLLWNTANMFTNPRFVHGAATSCNADVFAYAAAQVKKGLETAKELGAENYVFWGGREGYETLLNTDLKFELDNLARFMHMAVDYAKEIGYTGQFLIEPKPKEPTTHQYDTDAATTIAFLKQYGLDNHFKLNLEANHATLAGHTFEHELRMARVHGLLGSVDANQGHPLLGWDTDEFPTDLYSTTLAMYEILQNGGLGSGGLNFDAKVRRSSFEPDDLIYAHIAGMDAFARGLKVAHKLIEDRVFEDVIQHRYRSFTEGIGLEIIEGRANFHTLEQYALNHKSIKNESGRQEKLKAILNQYILEV
modifications: expressed in S. cerevisiae
- Active? (yes/no) [1]: No

B4: Staphylococcus xylosus: xylose isomerase of this donor organism, expressed in S. cerevisiae (protein, UniProt P27157 1-439, looked up)
Xylose isomerase: MSYFDINKVNYEGPKSNNAFSFKYYNPEEKLGNHSMSELLRFSVAYWHTFTADLSDPFGVGVAERDWDSLDEMEKAKARVEAIFEFMEKTRIDYFCFHDVDISPEGASLKESNENLDIIVELIKEKMDQTGKKLLWNTTNNFTHERFVHGAATSSNAEVFAYAAAKVKKSLEIAKKLGSENFVFWGGREGYESLLNTNMKLELDNLATFFKMAKSYADEIGYTGQFLIEPKPKEPTTHQYDTDVATAHAFLQKYDLDKDFKFNIEANHATLAGHTFQHELRYARDNNMLGSVDANQGHPLLGWDTDESTDVYDTTLAMYEILKNGGLAPGGLNFDAKPRRTSFKQEDLILTHIAGMDTFALGLRVAYKMIEDNFFENIMDEKYKSFNEGIGKKIVEGETSLKELEDYAFNINTINNTSDHLEVIKSQINQYILNINNKD
- Active? (yes/no) [1]: No

B5: Burkholderia xenovorans: xylose isomerase of this donor organism, expressed in S. cerevisiae (protein, UniProt Q13RB8 1-440, looked up)
Xylose isomerase: MSYFEHIPEIRYEGPQSDNPLAYRHYDKSKKVLGKTLEEHLRIAVCYWHTFVWPGVDIFGQGTFRRPWQQAGDAMERARQKADSAFEFFSKLGTPYYTFHDTDVSPEGSSLKEYSENFLRITDYLARKQEDTGIKLLWGTANLFSHPRYAAGAATSPDPEVFAFAATQVRHALDATQRLGGDNYVLWGGREGYDTLLNTDLMRERDQLARFLHMVVDHAHKIGFKGSLLIEPKPQEPTKHQYDYDVATVHGFLLQHGLEKEIRVNIEANHATLAGHSFHHEIATAYALGIFGSVDANRGDPQNGWDTDQFPNSVEELTLAFYEILKHGGFTTGGMNFDSKVRRQSVDPEDLFYGHIGAIDNLALAVERAAVLIENDRLDQFKRQRYAGWDADFGRKILSGDYSLSTLATDALARGLNPQHASGHQELMENIVNQAIYSGR
- Active? (yes/no) [1]: No

B6: R. flavefaciens, FD-1 XI: xylose isomerase of Ruminococcus FD1, ZP_06143883.1, SEQ ID NO: 110 (protein, listed as Ruminococcus flavefaciens)
chain: MEFFKNISKIPYEGKDSTNPLAFKYYNPDEVIDGKKMRDIMKFALSWWHTMGGDGTDMFGCGTADKTWGENDPAARAKAKVDAAFEIMQKLSIDYFCFHDRDLSPEYGSLKDTNAQLDIVTDYIKAKQAETGLKCLWGTAKCFDHPRFMHGAGTSPSADVFAFSAAQIKKALESTVKLGGTGYVFWGGREGYETLLNTNMGLELDNMARLMKMAVEYGRSIGFKGDFYIEPKPKEPTKHQYDFDTATVLGFLRKYGLDKDFKMNIEANHATLAQHTFQHELCVARTNGAFGSIDANQGDPLLGWDTDQFPTNIYDTTMCMYEVIKAGGFTNGGLNFDAKARRGSFTPEDIFYSYIAGMDAFALGYKAASKLIADGRIDSFISDRYASWSEGIGLDIISGKADMAALEKYALEKGEVTDSISSGRQELLESIVNNVIFNL
- slope of the activity at saturating xylose (FIG. 25) ([2]; 500 mM xylose, 100 μg total soluble crude extract): highest activity of the candidates tested
- specific activity relative to the native XI control ([2]; xylose between 40 and 500 nM): greater than 2 fold

B7: Bacillus licheniformis: xylose isomerase of this donor organism, expressed in S. cerevisiae (protein, UniProt P77832 1-448, looked up)
Xylose isomerase: MFFRNIGMIEYEGADSENPYAFKYYNPDEFVGGKTMKEHLRFAVAYWHTFDADGKDPFGDGTMFRAWNRLTHPLDKAKARAEAAFEFFEKLGVPYFCFHDVDIVDEGATLRETFTYLDQMSSFLKEMMETSHVQLLWNTANMFTHPRYVHGAATSCNADVYAYAAAKVKKGLDIAKELGAENYVFWGGREGYETLLNTDMKLELENLSSFYRMAVEYAREIGFDGQFLIEPKPKEPTKHQYDFDAATTIAFLETYGLKDHFKLNLEANHATLAGHTFEHELRVAALHDMLGSIDANQGDLLLGWDTDEFPTDLYSAVLAMYEILKAGGFKTGGINFDAKVRRPSFADEDLFHAHIAGMDTYAVGLKVASRLLEDKALDQVIEERYESYTKGIGLEIKEGRTDLKKLAAYALENDHIENQSGRQERLKATVNRYLLNALREAPAGKETH
- Active? (yes/no) [1]: No

B8: EDA-E. coli: 2-keto-3-deoxygluconate-6-phosphate aldolase (eda) of E. coli (protein, UniProt P0A955 1-213, looked up)
KHG/KDPG aldolase: MKNWKTSAESILTTGPVVPVIVVKKLEHAVPMAKALVAGGVRVLEVTLRTECAVDAIRAIAKEVPEAIVGAGTVLNPQQLAEVTEAGAQFAISPGLTEPLLKAATEGTIPLIPGISTVSELMLGMDYGLKEFKFFPAEANGGVKALQAIAGPFSQVRFCPTGGISPANYRDYLALKSVLCIGGSWLVPADALEAGDYDRITKLAREAVEGAKL
- EDA activity compared to the other EDAs, repeated experiment (FIG. 24) ([3]; 100 μg EDD and 25 μg EDA cell lysate (5 μg of E. coli EDA)): most active of those EDA's tested
- EDA activity compared to the other EDAs ([3]; first experiment): higher activity as compared to the other EDA activities
- EDA activity relative to the EDA from P. aeruginosa ([3]; first experiment, E. coli slope outside linear range): approximately 16 fold
